Reference: patent US20140221623A1 (Ablynx, published 2014)
Positions count from the first letter of the chain named. Each block holds one binder with its values, some of them ahead of it.

How the values were obtained:
Human soluble IL6-R [1] = target: T1, Human soluble IL6-R (human, UniProt P08887 20-358); assay: SPR (Biacore 3000), IL6-R on CM5 chip
T1 construct: Bought soluble receptor; biotinylated in some Alphascreen assays; also called sIL6-R; hIL-6R
T1 sequence (looked up): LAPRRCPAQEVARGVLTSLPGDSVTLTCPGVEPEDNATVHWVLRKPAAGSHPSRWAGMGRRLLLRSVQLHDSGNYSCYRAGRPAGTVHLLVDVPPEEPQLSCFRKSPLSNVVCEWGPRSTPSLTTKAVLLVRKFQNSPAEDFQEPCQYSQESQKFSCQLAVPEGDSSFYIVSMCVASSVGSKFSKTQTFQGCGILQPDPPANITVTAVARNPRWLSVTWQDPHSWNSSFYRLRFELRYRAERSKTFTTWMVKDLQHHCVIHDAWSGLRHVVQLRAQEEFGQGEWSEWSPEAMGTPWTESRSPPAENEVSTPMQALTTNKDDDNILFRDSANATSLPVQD

Human soluble IL6-R [2] = target: T1, Human soluble IL6-R; assay: SPR (Biacore), off-rate

Kd (Human soluble IL6-R [1]): 0.22 nM | koff (Human soluble IL6-R [1]): 0.000153 s⁻¹ | kon (Human soluble IL6-R [1]): 703000 M⁻¹ s⁻¹
B1: IL6R71 (VHH)
VHH: EVQLVESGGGLVQPGGSLRLSCAASGFTFDDYDIGWFRQAPGKGREGVSGISSSDGNTYYADSVKGRFTISSDNAKNTVYLQMNSLRPEDTAVYYCAAEPPDSSWYLDGSPEFFKYWGQGTLVTVSS
notes: Humanized variant of IL6R04

koff (Human soluble IL6-R [2]): 0.000111 s⁻¹
B2: PMP 31 C5 (VHH)
VHH: EVQLVESGGGLVQAGGSLRLSCAASGFTFDDYAIGWFRQAPGKEREGVSCISSSDGSTYYADSVKGRFTISSDNAKNTVYLLMNSLKPEDTAVYYCAAEPPDSMWSLDGSPEFFKFWGQGTQVTVSS
notes: also called PMP31C5(t)

Kd (Human soluble IL6-R [1]): 0.33 nM | koff (Human soluble IL6-R [1]): 0.00018 s⁻¹ | kon (Human soluble IL6-R [1]): 543000 M⁻¹ s⁻¹
B3: IL6R72 (VHH)
VHH: B1 VHH with D30S
notes: Humanized variant of IL6R04

koff (Human soluble IL6-R [2]): 0.00058 s⁻¹
B4: PMP 32 F10 (VHH)
VHH: B2 VHH with V48I, L82Q, M104S, S106I
notes: also called PMP32F10(t)

koff (Human soluble IL6-R [2]): 0.000281 s⁻¹
B5: PMP 31 D2 (VHH)
VHH: B2 VHH with C50G, S57N, L82Q, M104N, S106Y
notes: also called PMP31D2(t)

Kd (Human soluble IL6-R [1]): 0.33 nM | koff (Human soluble IL6-R [1]): 0.000233 s⁻¹ | kon (Human soluble IL6-R [1]): 698000 M⁻¹ s⁻¹
B6: IL6R73 (VHH)
VHH: B1 VHH with S72R
notes: Humanized variant of IL6R04

Kd (Human soluble IL6-R [1]): 0.16 nM | koff (Human soluble IL6-R [1]): 0.000122 s⁻¹ | kon (Human soluble IL6-R [1]): 767000 M⁻¹ s⁻¹
B7: IL6R74 (VHH)
VHH: B1 VHH with V79L
notes: Humanized variant of IL6R04

Kd (Human soluble IL6-R [1]): < 0.1 nM | koff (Human soluble IL6-R [1]): < 0.0001 s⁻¹ | kon (Human soluble IL6-R [1]): 1e+06 M⁻¹ s⁻¹
B8: IL6R75 (VHH)
VHH: B1 VHH with D30S, S72R, V79L
notes: Humanized variant of IL6R04

koff (Human soluble IL6-R [2]): 0.00164 s⁻¹
B9: PMP 30 G11 (VHH)
VHH: EVQLVESGGGLVQPGGSLRLSCVASGFSLDYYVIGWFRQAPGKEREGVSCISSSDGSTYYADSVKGRFTISRDNAKNTVYLQMNSLKPEDTAVYYCAADLLRTPEFCVDSAPYDYWGQGTQVTVSS
notes: also called PMP30G11(t)

koff (Human soluble IL6-R [2]): 0.00257 s⁻¹
B10: PMP 30 A2 (VHH)
VHH: B9 VHH with V23A, S28T, S52G, G56D, V108T
notes: also called PMP30A2(t)

koff (Human soluble IL6-R [2]): 0.000842 s⁻¹
B11: PMP 30 B6 (VHH)
VHH: B9 VHH with V23A, S28T, G47A, S49A, G56R, V79G, V108S
notes: also called PMP30B6(t)

koff (Human soluble IL6-R [2]): 0.000435 s⁻¹
B12: PMP 34 C3 (VHH)
VHH: B9 VHH with Q118R
notes: also called PMP34C3(t)

koff (Human soluble IL6-R [2]): 0.0005 s⁻¹
B13: PMP 33 A2 (VHH)
VHH: EVQLVESGGGLVQPGGSLRLSCAASGFSLDYYAIGWFRQAPGKEREGVSCMDSSGGTTSTYYSDSVKGRFTISRDDAKNTVYLQMNSLKPEDTAVYYCAADGHLNWGQRYVPCSQISWRGWNDYWGQGTQVTVSS
notes: also called PMP33A2(t)

koff (Human soluble IL6-R [2]): 0.000142 s⁻¹
B14: PMP 34 F8 (VHH)
VHH: B13 VHH with G55D, S59N, V95S, R109P
notes: also called PMP34F8(t)

koff (Human soluble IL6-R [2]): 0.00193 s⁻¹
B15: PMP 28 G3 (VHH)
VHH: EVQLVESGGGLVQAGGSLRLSCTASGNIFSTETMGWYRQPPGKQRDVVATITHGGTTNYADSVKGRFTISRDNRKNTVYLQMNSLKPEDTGVYYCNARSSWYSPEYWGQGTQVTVSS

Kd (Human soluble IL6-R [1]): 2 nM | koff (Human soluble IL6-R [1]): 0.0017 s⁻¹ | kon (Human soluble IL6-R [1]): 850000 M⁻¹ s⁻¹
B16: IL6R61 (VHH)
VHH: EVQLVESGGGLVQPGGSLRLSCAASGSIFKVNAMGWYRQAPGKGRELVAGIISGGSTNYADSVKGRLTISRDNAKNTVYLQMNSLRPEDTAVYYCSFVTTNSDYDLGRDYWGQGTLVTVSS
notes: Humanized variant of IL6R03

Kd (Human soluble IL6-R [1]): 4 nM | koff (Human soluble IL6-R [1]): 0.00235 s⁻¹ | kon (Human soluble IL6-R [1]): 600000 M⁻¹ s⁻¹
B17: IL6R65 (VHH)
VHH: B16 VHH with L67F, V78L, S96A
notes: Humanized variant of IL6R03

Kd (Human soluble IL6-R [1]): 2.22 nM | koff (Human soluble IL6-R [1]): 0.00207 s⁻¹ | kon (Human soluble IL6-R [1]): 929000 M⁻¹ s⁻¹
B18: IL6R62 (VHH)
VHH: B16 VHH with L67F
notes: Humanized variant of IL6R03

Kd (Human soluble IL6-R [1]): 3.69 nM | koff (Human soluble IL6-R [1]): 0.00365 s⁻¹ | kon (Human soluble IL6-R [1]): 990000 M⁻¹ s⁻¹
B19: IL6R63 (VHH)
VHH: B16 VHH with V78L
notes: Humanized variant of IL6R03

koff (Human soluble IL6-R [1]): 0.001 s⁻¹
B20: IL6R64 (VHH)
VHH: B16 VHH with S96A
notes: Humanized variant of IL6R03

koff (Human soluble IL6-R [2]): 0.00124 s⁻¹
B21: PMP 28 A2 (VHH)
VHH: EVQLVESGGGLVQPGGSLRLSCAASGFTFGSYDMSWVRQAPGKGPEWVSAINSGGGSTYYADSVKGRFTISRDNAKNTLYLQMNSLKPEDTAVYYCATDWRYSDYDLPLPPPGDYWGQGTQVTVSS
notes: also called PMP28A2(t)

koff (Human soluble IL6-R [2]): 0.00247 s⁻¹
B22: PMP 28 H6 (VHH)
VHH: B21 VHH
notes: also called PMP28H6(t)

koff (Human soluble IL6-R [2]): 0.00123 s⁻¹
B23: PMP 31 F4 (VHH)
VHH: B21 VHH
notes: also called PMP31F4(t)

koff (Human soluble IL6-R [2]): 0.00124 s⁻¹
B24: PMP 31 B11 (VHH)
VHH: B21 VHH
notes: also called PMP31B11(t)

koff (Human soluble IL6-R [2]): 0.00128 s⁻¹
B25: PMP 31 B4 (VHH)
VHH: B21 VHH
notes: also called PMP31B4(t)

koff (Human soluble IL6-R [2]): 0.00125 s⁻¹
B26: PMP 31 C8 (VHH)
VHH: B21 VHH
notes: also called PMP31C8(t)

koff (Human soluble IL6-R [2]): 0.00128 s⁻¹
B27: PMP 32 H5 (VHH)
VHH: B21 VHH
notes: also called PMP32H5(t)

koff (Human soluble IL6-R [2]): 0.00185 s⁻¹
B28: PMP 28 D4 (VHH)
VHH: B21 VHH
notes: also called PMP28D4(t)

koff (Human soluble IL6-R [2]): 0.00126 s⁻¹
B29: PMP 28 F7 (VHH)
VHH: B21 VHH
notes: also called PMP28F7(t)

koff (Human soluble IL6-R [2]): 0.00131 s⁻¹
B30: PMP 28 C7 (VHH)
VHH: B21 VHH with G56D, S57N
notes: also called PMP28C7(t)

koff (Human soluble IL6-R [2]): 0.00367 s⁻¹
B31: PMP 34 C11 (VHH)
VHH: EVQLVESGGGLVQPGGSLRLSCAAAGFTLDYSAIGWFRQAPGKEREMFSCISGSDGSTWYADSVAGRFTISFDNAKNTVYLQMNSLKPEDTGLYICAVTGGVRGPCAYEYEYWGQGTQVTVSS

Kd (Human soluble IL6-R [1]): 0.4 nM | koff (Human soluble IL6-R [1]): 0.000128 s⁻¹ | kon (Human soluble IL6-R [1]): 320000 M⁻¹ s⁻¹
B32: IL6R81 (VHH)
VHH: EVQLVESGGGLVQPGGSLRLSCAASGFTFDDYGMSWVRQAPGRATEWVSAISWNGNNTYYTESMKGRFTISRDNAKNTVYLQMNSLRPEDTAVYYCVKGSTAIVGVPPTYPDEYDYWGQGTLVTVSS
notes: Humanized variant of IL6R13

koff (Human soluble IL6-R [1]): 0.00019 s⁻¹
B33: IL6R89 (VHH)
VHH: B32 VHH with A44G, V79L
notes: Humanized variant of IL6R13

koff (Human soluble IL6-R [1]): 0.00192 s⁻¹
B34: IL6R90 (VHH)
VHH: B32 VHH with R43K, T45L, V79L
notes: Humanized variant of IL6R13

koff (Human soluble IL6-R [1]): 0.0017 s⁻¹
B35: IL6R86 (VHH)
VHH: B32 VHH with T45L, V79L
notes: Humanized variant of IL6R13

Kd (Human soluble IL6-R [1]): 5.36 nM | koff (Human soluble IL6-R [1]): 0.00409 s⁻¹ | kon (Human soluble IL6-R [1]): 762000 M⁻¹ s⁻¹
B36: IL6R84 (VHH)
VHH: B32 VHH with R43K, A44G, T45L, V79L
notes: Humanized variant of IL6R13

Kd (Human soluble IL6-R [1]): 5.07 nM | koff (Human soluble IL6-R [1]): 0.00314 s⁻¹ | kon (Human soluble IL6-R [1]): 619000 M⁻¹ s⁻¹
B37: IL6R82 (VHH)
VHH: B32 VHH with R43K, A44G, T45L
notes: Humanized variant of IL6R13

koff (Human soluble IL6-R [1]): 0.00206 s⁻¹
B38: IL6R85 (VHH)
VHH: B32 VHH with A44G, T45L, V79L
notes: Humanized variant of IL6R13

koff (Human soluble IL6-R [1]): 0.000105 s⁻¹
B39: IL6R87 (VHH)
VHH: B32 VHH with R43K, V79L
notes: Humanized variant of IL6R13

koff (Human soluble IL6-R [2]): 0.00268 s⁻¹
B40: PMP 30 A10 (VHH)
VHH: B32 VHH with R43K, A44G, T45L, N56G, N57S, R87K, L122Q
notes: also called PMP30A10(t)

Kd (Human soluble IL6-R [1]): 0.34 nM | koff (Human soluble IL6-R [1]): 0.00012 s⁻¹ | kon (Human soluble IL6-R [1]): 350000 M⁻¹ s⁻¹
B41: IL6R83 (VHH)
VHH: B32 VHH with V79L
notes: Humanized variant of IL6R13

koff (Human soluble IL6-R [2]): 0.00308 s⁻¹
B42: PMP 33 C10 (VHH)
VHH: B32 VHH with R43K, A44G, T45L, N56G, N57S, R87K, L122Q
notes: also called PMP33C10(t)

koff (Human soluble IL6-R [2]): 0.000331 s⁻¹
B43: PMP 34 D2 (VHH)
VHH: EVQLVESGGGLVQPGGSLRLSCAASGFTLDYFAIGWFRQAPGKERERVSCISSSDGSTYYADSVKGRFTISRDNAKNTVYLQMNSLKPEDTAVYYCATDRSVYYCSGGAPEEYYWGQGTQVTVSS
notes: also called PMP34D2(t)

koff (Human soluble IL6-R [2]): 0.00168 s⁻¹
B44: PMP 34 A5 (VHH)
VHH: B43 VHH with D30G, R47G, I70V
notes: also called PMP34A5(t)

koff (Human soluble IL6-R [2]): 0.00119 s⁻¹
B45: PMP 33 G3 (VHH)
VHH: B43 VHH with D30G, R47G, T58A, I70V
notes: also called PMP33G3(t)

koff (Human soluble IL6-R [2]): 0.001 s⁻¹
B46: PMP 30 B1 (VHH)
VHH: B43 VHH with F32Y, F37W, E44G, R47G, S54G, Y59N
notes: also called PMP30B1(t)
